Test results as given in PMC4078514 (2014).
No end group written: not given here.

Molecular target: gastrin-releasing peptide receptor (GRP-r) (Homo sapiens, UniProt P30550)
Test: radioligand saturation binding on PC-3 cells

gastrin-releasing peptide receptor (GRP-r), sequence (P30550 whole entry): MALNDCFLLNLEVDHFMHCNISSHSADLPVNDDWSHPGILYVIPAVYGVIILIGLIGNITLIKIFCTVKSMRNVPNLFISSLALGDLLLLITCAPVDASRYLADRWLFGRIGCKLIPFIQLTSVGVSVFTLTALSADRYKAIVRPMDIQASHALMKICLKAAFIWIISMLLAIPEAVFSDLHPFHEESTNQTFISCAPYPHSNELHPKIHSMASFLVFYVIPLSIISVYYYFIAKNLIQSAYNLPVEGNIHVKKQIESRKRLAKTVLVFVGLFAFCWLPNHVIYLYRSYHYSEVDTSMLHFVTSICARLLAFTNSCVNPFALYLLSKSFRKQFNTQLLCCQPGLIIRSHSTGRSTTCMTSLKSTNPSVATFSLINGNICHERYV

B1: [99mTc(CO)3(15)] BBS-scrambled shepherdin(79-83) conjugate (peptide)
chain: QWAVGHL
modifications: not fully specified (C-terminus); also: (βAla)3 spacer, triazole-Lys 99mTc(CO)3 chelate, succinyl-linked scrambled shepherdin SGKHS
Which Kd does the source give for B1 here?
The Kd was 11.3 nM.

B2: [99mTc(CO)3(14)] BBS-shepherdin(79-83) conjugate (peptide)
chain: QWAVGHL
modifications: not fully specified (C-terminus); also: (βAla)3 spacer, triazole-Lys 99mTc(CO)3 chelate, succinyl-linked shepherdin KHSSG
With B2 as the binder, how does the Kd read?
The Kd was 10.9 nM.

B3: [99mTc(CO)3(16)] BBS reference conjugate (peptide)
chain: QWAVGHL
modifications: not fully specified (N-terminus, C-terminus); also: triazole 99mTc(CO)3 chelate, methyl group in place of shepherdin
B3 was tested. Which Kd did it give?
Its Kd is 5.6 nM.
